{"source": "the RNAGym collection of RNA variant scans (doi:10.1073/pnas.2313332121)", "parents": {"B1": {"name": "TPR 5TU (parent)", "chain": "GGAUCUUCUCGAUCUAACAAAAAAGACAAAUCUGCCACAAAGCUUGAGAGCAUCUUCGGAUGCAGAGGCGGCAGCCUUCGGUGGCGCGAUAGCGCCAACGUUCUCAACUAUGACACGCAAAACGCGUGCUCCGUUGAAUGGAGUUUAUCAUG"}}, "note": "Variants at the floor of the assay were thinned out."}
{"variants_of": "B1", "assay": "polymerase ribozyme fitness, log enrichment relative to wild type (log ratio); higher = more active; in vitro selection for triplet polymerase activity", "how_it_was_run": "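Mutant libraries for each subunit of a heterodimeric triplet polymerase ribozyme were made by PCR and then transcribed. Each library underwent one round of in vitro selection in triplicate: annealing with a biotinylated primer, the partner subunit and triplets, frozen incubation at −7 °C, gel excision of extended constructs, streptavidin-bead capture and RT-PCR. Input and output libraries were Illumina-sequenced, and only genotypes with ≥10 input reads and ≥1 read per output were kept. Fitness is the logarithm, base 2, of genotype enrichment over wild-type enrichment, computed from inverse-variance-weighted replicate averages.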"}
{"variant": "C32U C76A G83U G92C C114U C123A", "polymerase ribozyme fitness (log ratio)": "≤ -4.2"}
{"variant": "U31G C95U", "polymerase ribozyme fitness (log ratio)": 0.463}
{"variant": "U31G C95A", "polymerase ribozyme fitness (log ratio)": 0.165}
{"variant": "U33G A52C G92C U139C", "polymerase ribozyme fitness (log ratio)": "≤ -4.2"}
{"variant": "U31G U56A G80C C87G C99G", "polymerase ribozyme fitness (log ratio)": "≤ -4.2"}
{"variant": "C32G A110G A122C G141C", "polymerase ribozyme fitness (log ratio)": -4.02}
{"variant": "C32U A52U U90C G128C", "polymerase ribozyme fitness (log ratio)": "≤ -4.2"}
{"variant": "U33A C57U C79G A89U A97G", "polymerase ribozyme fitness (log ratio)": "≤ -4.2"}
{"variant": "C32G A49C C118U", "polymerase ribozyme fitness (log ratio)": "≤ -4.2"}
{"variant": "C32A C35U C57G G62A U90C C103G C116U C149U", "polymerase ribozyme fitness (log ratio)": "≤ -4.2"}
{"variant": "U33G G83A G88U G136C", "polymerase ribozyme fitness (log ratio)": "≤ -4.2"}
{"variant": "C32G C51U U53A G94A U101A A122G", "polymerase ribozyme fitness (log ratio)": "≤ -4.2"}
{"variant": "U33A U44A G46U G59A C93G C103U U104A U135A C149G", "polymerase ribozyme fitness (log ratio)": "≤ -4.2"}
{"variant": "U31G A37U A49C C93A A106G G117C U145C U148A", "polymerase ribozyme fitness (log ratio)": "≤ -4.2"}
{"variant": "C32A A91U C99U A120C", "polymerase ribozyme fitness (log ratio)": "≤ -4.2"}
{"variant": "C32A U44A A60C C79G G92U", "polymerase ribozyme fitness (log ratio)": "≤ -4.2"}
{"variant": "C32G C96U C116G G141U", "polymerase ribozyme fitness (log ratio)": "≤ -4.2"}
{"variant": "C32U C69A G84A C96G U111A", "polymerase ribozyme fitness (log ratio)": "≤ -4.2"}
{"variant": "C32U U55G U61C G84U G100C", "polymerase ribozyme fitness (log ratio)": "≤ -4.2"}
{"variant": "U31G C99U C116U A137G", "polymerase ribozyme fitness (log ratio)": -1.84}
{"variant": "U33C A40C G68U C95A U102C C132G", "polymerase ribozyme fitness (log ratio)": -3.48}
{"variant": "U33G G58U A91C G143U", "polymerase ribozyme fitness (log ratio)": -3.87}
{"variant": "C32G U61A G92U C131U", "polymerase ribozyme fitness (log ratio)": "≤ -4.2"}
{"variant": "U31G U56A G136A A147C", "polymerase ribozyme fitness (log ratio)": -0.143}
{"variant": "U33G C95A", "polymerase ribozyme fitness (log ratio)": -3}
{"variant": "U31C U101C G124A", "polymerase ribozyme fitness (log ratio)": 1.05}
{"variant": "U33A C95U A142U G143U", "polymerase ribozyme fitness (log ratio)": -4.13}
{"variant": "U31G C123G A142G", "polymerase ribozyme fitness (log ratio)": -1.12}
{"variant": "U33G C72U C95A G126U A137G", "polymerase ribozyme fitness (log ratio)": "≤ -4.2"}
{"variant": "U31G A52U A60G A98G", "polymerase ribozyme fitness (log ratio)": -4}
{"variant": "U33G G42A G58C A91G G100A", "polymerase ribozyme fitness (log ratio)": "≤ -4.2"}
{"variant": "C32A A41C A66C C95U C99G G117U A150C", "polymerase ribozyme fitness (log ratio)": "≤ -4.2"}
{"variant": "U33G A40G C54U U55G A98G A147U A150C", "polymerase ribozyme fitness (log ratio)": "≤ -4.2"}
{"variant": "U33G C35A A66G C93U U104G C105U U134G", "polymerase ribozyme fitness (log ratio)": "≤ -4.2"}
{"variant": "C32G A47C U55A U56G G67U G88A G100C C105U A137U G141U", "polymerase ribozyme fitness (log ratio)": "≤ -4.2"}
{"variant": "U33C G50A", "polymerase ribozyme fitness (log ratio)": -3.85}
{"variant": "U33G G117A U134C", "polymerase ribozyme fitness (log ratio)": -2.88}
{"variant": "C32G G42C U44A G88C C95U C103G", "polymerase ribozyme fitness (log ratio)": "≤ -4.2"}
{"variant": "U33G G48C U53A C93U C149U", "polymerase ribozyme fitness (log ratio)": "≤ -4.2"}
{"variant": "U31G U53A A89C C93G G100A A137C A147U G152C", "polymerase ribozyme fitness (log ratio)": "≤ -4.2"}
{"variant": "C32U U61C", "polymerase ribozyme fitness (log ratio)": -3.52}
{"variant": "C32U U61G", "polymerase ribozyme fitness (log ratio)": -3.73}
{"variant": "C32U G65C U77A C87G U90C C114A U151A", "polymerase ribozyme fitness (log ratio)": "≤ -4.2"}
{"variant": "U31G G58C G140C", "polymerase ribozyme fitness (log ratio)": -4}
{"variant": "C32G C99U", "polymerase ribozyme fitness (log ratio)": "≤ -4.2"}
{"variant": "C32A U82C", "polymerase ribozyme fitness (log ratio)": "≤ -4.2"}
{"variant": "C32A C85U", "polymerase ribozyme fitness (log ratio)": -4.06}
{"variant": "U33G G46C C95U C99A A107G G133U", "polymerase ribozyme fitness (log ratio)": "≤ -4.2"}
{"variant": "C32G G59C C87G", "polymerase ribozyme fitness (log ratio)": "≤ -4.2"}
{"variant": "C32U C75U G88A A115C", "polymerase ribozyme fitness (log ratio)": "≤ -4.2"}
{"variant": "C32G C51U G94U", "polymerase ribozyme fitness (log ratio)": "≤ -4.2"}
{"variant": "U33C G143C", "polymerase ribozyme fitness (log ratio)": "≤ -4.2"}
{"variant": "C32U U61A G74U C99G", "polymerase ribozyme fitness (log ratio)": "≤ -4.2"}
{"variant": "U31G C32U C75G A98G A121C G133A", "polymerase ribozyme fitness (log ratio)": "≤ -4.2"}
{"variant": "U33A A91G", "polymerase ribozyme fitness (log ratio)": "≤ -4.2"}
{"variant": "U33A A91C", "polymerase ribozyme fitness (log ratio)": "≤ -4.2"}
{"variant": "C32U C69G C72U G88C U135G", "polymerase ribozyme fitness (log ratio)": "≤ -4.2"}
{"variant": "C32U U101A", "polymerase ribozyme fitness (log ratio)": -3.76}
{"variant": "U33A A49C C76U G80U C149G", "polymerase ribozyme fitness (log ratio)": "≤ -4.2"}
{"variant": "U33A G50C G81A C93G C96U A98G C103G G152U", "polymerase ribozyme fitness (log ratio)": "≤ -4.2"}
{"variant": "U31G C54U U101C", "polymerase ribozyme fitness (log ratio)": -0.138}
{"variant": "U33G A39C C54U", "polymerase ribozyme fitness (log ratio)": -3.84}
{"variant": "U31G C35U A60U A115G", "polymerase ribozyme fitness (log ratio)": -3.22}
{"variant": "C32U C43U G92A U146G", "polymerase ribozyme fitness (log ratio)": "≤ -4.2"}
{"variant": "C32G A37G C95U", "polymerase ribozyme fitness (log ratio)": -3.7}
{"variant": "C32A A39U G58A C72U G80U G83A", "polymerase ribozyme fitness (log ratio)": "≤ -4.2"}
{"variant": "U31G C87U U127A", "polymerase ribozyme fitness (log ratio)": -3.89}
{"variant": "U33G G86U", "polymerase ribozyme fitness (log ratio)": -3.95}
{"variant": "U33A A47C C99A", "polymerase ribozyme fitness (log ratio)": "≤ -4.2"}
{"variant": "U33A C85U", "polymerase ribozyme fitness (log ratio)": -3.79}
{"variant": "C32U A147C", "polymerase ribozyme fitness (log ratio)": -2.55}
{"variant": "C32G A47C G74C C116U C132A A138U", "polymerase ribozyme fitness (log ratio)": "≤ -4.2"}
{"variant": "C32A A47U C87U", "polymerase ribozyme fitness (log ratio)": "≤ -4.2"}
{"variant": "C32U C85A C99G G133C U139G", "polymerase ribozyme fitness (log ratio)": "≤ -4.2"}
{"variant": "C32U G83U G126A", "polymerase ribozyme fitness (log ratio)": -4.19}
{"variant": "U33G G50A C63G G94A C95G C116U", "polymerase ribozyme fitness (log ratio)": "≤ -4.2"}
{"variant": "C32U G42A A60C A66G A73G C79A G84A C93U C96G A97U C103G", "polymerase ribozyme fitness (log ratio)": "≤ -4.2"}
{"variant": "C32G U45C", "polymerase ribozyme fitness (log ratio)": -4.16}
{"variant": "C32A A89C C95A", "polymerase ribozyme fitness (log ratio)": "≤ -4.2"}
{"variant": "U33G G80C G92A C131A U151A", "polymerase ribozyme fitness (log ratio)": -4.15}
{"variant": "C32U G80U U102G A113U C125U G126A", "polymerase ribozyme fitness (log ratio)": "≤ -4.2"}
{"variant": "C32A U61A C63G A66U U77G", "polymerase ribozyme fitness (log ratio)": "≤ -4.2"}
{"variant": "U31G C95A C123G", "polymerase ribozyme fitness (log ratio)": 0.831}
